Experimental data as given in a protein production outcome set (Wang et al. 2014).

Assay: label from the status in PepcDB records

| Sequence | protein production |
| --- | --- |
| MFKGDMNKKRAKALQKVKEAITLHGGQTILSTGITGDDARLAKAVCEAGVKLLEPNHPALALARGHKGVSNMHAAEQIRHEITNSQMAEAVHGVRNVVPDDIFITVGIAGGFTETLPVPLSEKEILEIARAGADGLHTHKSDWDDLQDIVNLAHQYGLTVDAYIGHPDDLHTFGIPARTPEEVASVAKRMQDIGVDMIGLMTGMSYEGVAAGDIPQMIKDRLRALVGAVDVPTLAEGGINLANAKAFKDTGVNILVVGTAIDNMVCNAAKEAVTPFIVH | not failed |
| MADNINESEIIERLNSAPSVRGFFIATVDVFNESIDGLIQRIFRKDNFAVQSVVGPLLQDSGPLGDLSVRLKLLFGLGVLPDDIYHDIEDIIKLKNHLNSDASDYEFTDPNILEPIKKLHLVKKMGMVQLEVNEPDDDIDLEFYQLQLQRQQQIIKSGLSLAIVEICNELGK | not failed |
| MLARVRRVLALILIVLAGLVALLSPAFPALSHYGTLPRHGDKPLNVLLAGVDVNYDEQAPVWPYPAQPEDYSGRTDTIVLTQVRPDGTVKLLSIPRDSWVPIAGWSGGWGKINSANVHGGPDMLLNTVQALTGVHPDGYALLSLNALRAVTEAVGGVTIDVPQRMKYDDNAGHLHIDLQPGRQRLSGEQAEGFLRFRKDNMGDIGRVGRQQQFLTALIAEIRRPANVWKLPKVIAALDANAKTNLTRAQIAELLGAAQRGPQVSTFTVPGNFGMVGAASVWNVDTPRLDALLAEQFRDPGDPHGLRVLVLNADAPDGSARRLKAKLEALGYHNVSTANEQKPWPVTTVSGPATPAAALLRDLGYGQLDNAPSLPGSELTIRLGRDTPAQ | failed |
| MTIIKYIKFVVIIVIVTIVFSCSKNEAGNSEYDPSLPISLTDFFPIQGGMATRMVIEGANFGTDLSQIKVFFNQKEASILNVKNSIIYLLVPKLPGNDCIVTVKVGNQEARFTRNFQYIENYSVTTIAGQPGTNLFVEGTLAAAQFGPVQHLAIDDENNLFITERNGSDGKGTCSVLNEESGTVTFLFKASDNLNVPTVNAQTQNVYIPLDGGYTFYELNPVNQWIAKSRLVLHPSKEQQEAGMDDFEINWKHSLAFSRYDNMIYTRSYGGDLIKVDPETRVGQKIGNFFPNTDSFIVAHPTQPEILYIAYAAKHVIYTYNIETGEHKLFAGAFGQSGWNDGIATDAEFNSPRQMSLDMEGNIYIADSGNHCIRMIDKNGIVTTPIGQPGEAGYADGSPDMALLNDPRGVAVNSEGDVYIADLGNRCIRKLTLQLEHHHHHH | failed |
| MIVSITLLILAVGVFAIILARFIRIPYTLLLVVLGFFLSLFTVAFGIDTGVRASNFQDLMLFILLPVLIFEAAFALNSKLLFKYLPNVLTLATLGLIISTLVIAVFLYFGIAHSGFPFIAALLTGVVISATDPVAVVGQLKALKAPDDLNVLIEGESLFNDATAIVLFSIILSIALGQSEPDLTSAIITFSKVFFGGIIVGSVFGYIAALLVKIIDTSVPHMVVITLFLAYGTFYIAEHLFHVSGIVAVMFAALLFKKSAQDQLKDVHTGLHNIWESLGFIANIFVFVLLGLVVSLNMFTQMWLAIILAIVGAFIARVIAVYCSVWLNQVIVGQPINRKYPPIMIWGGLRGAVTIALVLSLPTELPYWWTIQSIGFGIVLFTLIVQATTTPLLVKKLNI | failed |
| MTETFNPDLDLKISRIIKAPRRLVWNAWTDKTSLEQWWVPHPGQCRVDKMELHPGGAFETRYSEDGREFGQHVSGCFLAVDHEQRLIFTDALTAGFRPSAQPFLTAVMTFRDHPDGMEYEAYAMHNNLADRDRHAEMGFFDGWNTVAEQLAQLVEKQAAH | failed |
| MTLPRLILPLLIAAACALGGCAYNPDLGRDQLLIVNDNNLARDGEKAWADALRTSHVSKEPRKNARVQAVGQRVIVAAGLAGRPWEYAVFLEEAPNAFVLPGGYVGVTVGLLSLVENDDQLAAVIGHEAGHVVARHAAERVSQETTSKVLLGIAKAAAGGTEFGKLLKDHGEDATRYGLLLPFSRKQELEADKLGVDFMQRAGYRPREAVKLWRNMQALDGGKSGGDLGSTHPSDAVRIQELERYLASKGWLEHHHHHH | failed |
| PTLDSVEDGVLKKVVINISNSCNLSCSYCYADGGNYGMDNRIMDLTTADNIIQEIASKGVTQINRLILFGGEPFLNIELFIYFIEKLSTLLNVVKIETVTNGTVLNKRVKEMLVKFHPYLTISLDGPEIVHDRLRGRGSHRKTLRFINYLKNIDYE | failed |
| YRYDEQLNLCLERLSSGKDKNKSVLQNKYVRCSVRAEVRHLRRVLCHRLMLNPQHVQLLFDNEVLPDHMTMKQIWLSRWFGKPSPLLLQYS | failed |
| MQVKENKQLCLISLGCSKNLVDSEVMLGKLYNYTLTNDAKSADVILINTCGFIESAKQESIQTILNAAKDKKEGAILIASGCLSERYKDEIKELIPEVDIFTGVGDYDKIDIMIAKKQNQFSEQVFLSEHYNARIITGSSVHAYVKISEGCNQKCSFCAIPSFKGKLQSRELDSILKEVENLALKGYTDMTFIAQDSSSFLYDKGQKDGLIQLIRAIDKQQALKSARILYLYPSSTTLELIGAIESSPIFQNYFDMPIQHISDSMLKKMRRNSSQAHHLKLLDAMKQVKESFIRSTIIVGHPEENESEFEELSAFLDEFQFDRLNIFAFSAEENTHAYSLEKVPKKTINARIKALNKIALKHQNHSFKALLNKPIKALVENKEGEYFYKARDLRWAPEVDGEILINDSELTTPLKPGHYTIAPSEFKDNILLAKVLSPF | failed |
| MSDLGAYIHAVETASSASALREAVIQLAQQNSTAAIPTLIAVLGYNNPAAAQAAVEGLIALGDAVVEPLLAQLDGYNYGARAYGVRVLGSIGHPAALQVLLAAAQSDFAPSVRRAATKALGTLRWQLIPEETVREAQLKEALAVLQRNSKAADWAVRYAVGVALDYLHQQAAARGIREAVRSLLNHLSDRDPDIVVRSRCQLALQRDSLSMHT | failed |
| MINAISPFQVQNTQNTQNATNQVNNSQKTDSSNQTSFSELLKNSISSLNESQVASDNMTNALAAGKDVNLDEVMIAAQKASISLTAATEFRNKAVEAYQEIMRMQM | not failed |
| MGRLVSLLPSATDLIFELGLGEQLLGVSHCCDHPGAASLPVLTRSIIGSDLPQAEIDRAVSEAVRAGRALYTVDGPLLDRLRPDLVVTQGVCEVCAVTPGTVAEAVRFLPGCLPAEQVLSLEGKTFAGILADLRALARAAGLEHHHHHH | failed |
| MMGNDSYSSNRGSSRDVLSFLQNFLGGFYAKYGIEVKLVGGLSLSKFYYAFDAERNQFLARHFLPVLSYIKKDFNARAALGIVNVDIYEPGFNFIFGLAHPGLKVAVVSLYRLYPEFYGNPPDRKLLKERALKEVMHELGHVFGLGHCPNPKCVMHFSNSIIDTDIKSWMYCESCLRKLEKNLARSHVLEHHHHHH | failed |
| MKKQLIKSSTFRTLEVIIITVISLVLTPYLIHHLGDAHYGLWILILSALGWFNFIDLGFAYAVQRNIVLALENKDNHRINIVFSVAVALFSVLGFIAAFCVLVLAFFPELLGINEKEQSIATIAFSILAIKVFLDFIMNCFHGFFTAYLRMDIDANLGTLNMVVKSILVFYLIIDMNIYGAVFATIAADILTHSLKMHFARKLHPEFKFVLHLVKFSEVRQLFAFSKHLILMGMAKSVNRRVDPIIISHLLGLKFVAIYNVINSLMNQVESLVGAIVGVFQPVLTKMVARNTGLDGTFKLIISINFFTVILLYMPLAILAEDFITLWIGLDYAQAGQLAPILGFAYICRTVSRPISSLLLAKAQHQLLSVVNLLGALLNIGLSLVLGSQWGLLGIAIATACSFFVSDVILHLVLLNKYTELPVLKPILEFIKLVVLYILLVVLGISMMQLFEPLNWGQLIIAAIACVCIALLIAWPMLLDKEVKQKLLGMLIKTGKAHD | failed |
| MRPETLAVIQKQLTKIKAAQRNMTDNEVLRSMDEIMFCFENCYTEDETFTHIAQMFPSYVLKIVKSFFQISKAVTDEESREAYLTDAEECASVRRSQARDTSEEAKRSQDTLMGRLILIFMRPETREIIEMQLLPAMKLVKERLEREVEKQSMDEFMFCFENCYTEKETEMHVTRKFPSLKQSDVGIGFQTFIGLIDKESSREAYLKDAEDCANVRRIEARQGEASTSHKCEPNCNKH | failed |
| MPGFLTADLIRARLAPKDFQRGEEYLKDGRVLKAEWVADDEISGQVAGSAGRRYVQTITLENGLGGLSIVGYCSCPVGFACKHVAAVLLTLAREAEPVVPAWDGSFGARPAQAAVSEPTLDPALAEWIAAVAGFEEVGDPEAYPPAIRHRLIYVVGPQGEGGVPQNGEGRSESRGGGRVSAEIEVTLWSIAVLKDGQMSSVERRILSADALVRSPARPAYLRPSDLALVPRLAALRAPGGGNALLLPQISGSELFAAMVASGRCRWGGPDGPTLYPGAARRAKLVWRSDGEGWQRPAIEPEAMAPEAADPETAQPDIGQPYIAQPAIPEIGALDGEAVEAPTRTDPDDASPAPEDGESGQSPEAEAWDLRALPIEPPAYVDPRSGETGPLDLGLDPRLAARLLSAPPIPPTSVDAVRSRLGALLPAAVPVLPAPIDAQPLSVAPQPILRLLALRAVPRMRGAEMPGETTQALVARPCFAYDSVILPADSSEPAPLRMVGASLMRIERDFAAEGTALRQLDRIGPLRVAEALGRVRVEGGISADRLIAPPFLPRGEERERAVDFLRDGVPDLEEAGWRIEIDPDFPVRPVVADSQDWWGGLNAVGGLEGTVGGWLSVGLGVTIDGERVDLLPALLTLLGEGEDLVEREEDELLYLPLGDGRVLPVAVRRLRPIFHALHAVAVPDERAGPGVRLSGRDLGPLALLEEAGKPLGVVWEGAEGARDIARRLAVVGLREAVAPPKGLVGSLRAYQNEGLDWLQFLRANNLGGILADDMGLGKTLQTLAHILVEKESGRLNDPVLIVAPTSVLGAWRREAAQFAPGLRLVVLHGPERAAGFSQMADQDVVVTSYALVRHDLEVLKAQPWHMLVLDEAQTIRNPQTVQYKAVAALKARHRLFLTGTPLENHLGDLWALMDLLMPGLLGDGATFRRVFRGPIEKRGDGPRRRALAVRVRPFILRRTKDEVATDLPAKTEMIDMVELEGGQRDLYEAVRLAAHKAIREVLAEKGLARGRIHILAALTRLRQVCCDPRLVKGGPRKPPPSAKLDRLEEMLRDLVDEGRRTLVFSAFPSMLALVEERLAAASIPWVSLTGETRDRDTPVTRFQSGAVPVFLISLKAGGTGLTLTAADTVIHYDPWWNPAVEAQATDRAHRIGQDKPVFVHKLVAAGTVEERILALQDRKRGLLDGLFDGEAGPSSLLSEEVIEEILRPLG | failed |
| MREDAARDRMRGFGFHEHVISESIKELLEVYEDQWFLIEDDSYGPLLAICLEKQEEKEKQLAEVQANQLPENHNEEMAEEEQPNQLAVEIHEEEKEQEQDMHIEYGRDQADELSINSEAVNDPSPAAIHLGEASSDYAQSSVRGVENLHCGWLIDEEETDPEEETDPEEKETEPEDPKEKETEPEEDSDGDDDEIIQLTPEPLCEELQELLREVRGQKRRKKEMRWDK | failed |
| MFLGELTERPVSLYAAAVLRIGYGLLYLAFLLREFPHRDEIWGPGSPWTPELARQLFDQTGWVSILTLSDGRAYFEACYALALVTCALFLLGWRTRAVSVLFAVVVASFHARAIFMTDGGDNLVLLMAVYLVFTACGRRWSLDARRTRLRAGASPAASPPARQEADGFRRQLGASRRTLTAVLHNCGMFVIAAQVCFLYGSAGLYKVQGGSWGNGTALHYVLNLDLFRPWPELSLLTDEHDVLMAIACYLTVLLQVAFPFVLFGRLKYPVLTVLLGMHLGIAVLLGLPLFSGAMIVADAVFLPDRCYLLLGRLWRRAGRRTGSTEAGAPARGESAFLPPQSAVSSPRTAAAPVRGRRA | failed |
| MAKIKVMSIFGTRPEAIKMAPLVLALEKEPETFESTVVITAQHREMLDQVLEIFDIKPDIDLDIMKKGQTLAEITSRVMNGINEVIAAENPDIVLVHGDTTTSFAAGLATFYQQKMLGHVEAGLRTWNKYSPFPEEMNRQLTGVMADIHFSPTKQAKENLLAEGKDPATIFVTGNTAIDALKTTVQKDYHHPILENLGDNRLILMTAHRRENLGEPMQGMFEAVREIVESREDTELVYPMHLNPAVREKAMAILGGHERIHLIEPLDAIDFHNFLRKSYLVFTDSGGVQEEAPGMGVPVLVLRDTTERPEGIEAGTLKLIGTNKENLIKEALDLLDNKESHDKMAQAANPYGDGFAANRILAAIKSHFEETDRPEDFIV | not failed |
